Source: patent publication US20170022268A1 (published 2017)
Where no end group is shown, it is not given here. [ ]: non-standard residue; d: D form. pGlu = O=C1CC[C@@H](C(=O)O)N1

B1: monoclonal antibody 2E8 (antibody, V domains shown)
VH: QIQLQQSGPDLVKPGASVKISCKASGYTFTDYYINWVKQKPGQGLEWIGWLNPGSGNTKYNEKFKGKATMTVDTTSSTVYMQLSSLTSEDSAVYFCTREGPIDYWGRGTSVTVSS
VL: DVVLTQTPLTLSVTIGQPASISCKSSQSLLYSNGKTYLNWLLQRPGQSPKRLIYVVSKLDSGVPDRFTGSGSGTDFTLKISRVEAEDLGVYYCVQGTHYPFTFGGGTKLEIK
B2: monoclonal antibody 5C9 (antibody, V domains shown)
VH: QIQLQQSGPELVKPGAAVKISCKASGYTFTDYYLNWVKQKPGQGLEWIGWIYPGSGNVKYNEKFKGKATLTADTSSNTAHMQLSSLTSEDTAVYFCTREGLIVYWGQGTLVTVSA
VL: DVVLTQTPFTLSVTIGQPASISCKSSQSLLHSNGESYLNWLFQRPGQSPKRLIYAVSKLDSGVPDRFTGSGSGTDFTLKISRVEAEDLGVYYCVQGTHFPFTFGGGTKLEIK

Experiments:
[1] = target: T1, pyroglutamated human Aβ3-11 with the addition of a C-terminal cysteine residue, pE-FRHDSGYE-C (not fully specified); assay: Biacore SPR; overall KD
T1 peptide: [pGlu]FRHDSGYEC

[2] = target: T1, pyroglutamated human Aβ3-11 with the …; assay: Biacore SPR; KD1 (first binding step)

Binder	Kd [1]	Kd [2]
B1	64 nM	3.46 nM
B2	8.2 nM	0.116 nM
